Laboratory results: article PMC8338886 (Clinical Cancer Research, 2021)

T1: Human PD-L2 (human, UniProt Q9BQ51)
T1 sequence: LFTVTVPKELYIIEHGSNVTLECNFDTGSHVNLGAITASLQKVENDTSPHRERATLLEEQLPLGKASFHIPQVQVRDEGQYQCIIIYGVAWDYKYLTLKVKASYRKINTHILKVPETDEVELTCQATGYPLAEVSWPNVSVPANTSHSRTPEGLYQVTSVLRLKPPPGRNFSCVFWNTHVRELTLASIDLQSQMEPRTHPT


Molecular target: T1, Human PD-L2
Assay: SPR

| Kd [nM] | Binder |
| --- | --- |
| 2.95 | sPD-1V1 Fc (Fc fusion) LDSPDRPWNPPTFSPALLVVTEGDNATFTCSFSNTSESFVLNWYRMSPSNQTDKLAAFPEDRGQLGQDCRFRVTQLPNGRDFHMSVVRARRSDSGTYLCSAIVLAPKIQIKESLRVELRVTERRAEVPTAHPSPSPRPAGQFQTLV |
| 3.4 | sPD-1V2 Fc (Fc fusion) LDSPDRPWNPPTFSPALLVVTEGDNATFTCSFSNTSESFVLNWYRMSPSNQTDKLAAFPEDRGQLGQDCRFRVTQLPNGRDFHMSVVRARRNDSGTYLCSAIVLAPKIQIKESLRVELRVTERRAEVPTAHPSPSPRPAGQFQTLV |
